According to article PMC4537775 (Cell, 2015):
Where two headings read alike, the source gives them in different places.

Key:
[1] = target: the molecule itself; assay: SEC
[2] = target: the molecule itself; assay: SEC; remark: listed apart in the source

Row | Protein | stoichiometry N [1] | stoichiometry N [2]
1 | full-length IstB (AAA+ ATPase subunit of the Geobacillus stearothermophilus IS21 family member IS5376) (natural protein, UniProt Q45619 1-251, looked up) MKERIHEYCHRLHLPVMAERWSAMAEYASTHNISYSEFLFRLLEAEIVEKQARSIQTLIKLSKLPYRKTIDTFDFTAQPSVDERRIRELLTLSFIDRKENILFLGPPGIGKTHLAISIGMEAIARGYKTYFITAHDLVNQLRRADQEGKLEKKLRVFVKPTVLIIDEMGYLKLDPNSAHYLFQVIARRYEHAPIILTSNKSFGEWGEIVGDSVLATAMLDRLLHHSIIFNLKGESYRLREKRLQEEKQKDQ | 2 | –
2 | full-length IstB sensor-II mutant R237A (natural protein, Geobacillus stearothermophilus, UniProt Q45619 1-251, looked up) MKERIHEYCHRLHLPVMAERWSAMAEYASTHNISYSEFLFRLLEAEIVEKQARSIQTLIKLSKLPYRKTIDTFDFTAQPSVDERRIRELLTLSFIDRKENILFLGPPGIGKTHLAISIGMEAIARGYKTYFITAHDLVNQLRRADQEGKLEKKLRVFVKPTVLIIDEMGYLKLDPNSAHYLFQVIARRYEHAPIILTSNKSFGEWGEIVGDSVLATAMLDRLLHHSIIFNLKGESYALREKRLQEEKQKDQ | – | 2
3 | full-length IstB Walker-A mutant K111A (natural protein, Geobacillus stearothermophilus, UniProt Q45619 1-251, looked up) MKERIHEYCHRLHLPVMAERWSAMAEYASTHNISYSEFLFRLLEAEIVEKQARSIQTLIKLSKLPYRKTIDTFDFTAQPSVDERRIRELLTLSFIDRKENILFLGPPGIGATHLAISIGMEAIARGYKTYFITAHDLVNQLRRADQEGKLEKKLRVFVKPTVLIIDEMGYLKLDPNSAHYLFQVIARRYEHAPIILTSNKSFGEWGEIVGDSVLATAMLDRLLHHSIIFNLKGESYRLREKRLQEEKQKDQ | – | 2
4 | full-length IstB Walker-B mutant E167Q (natural protein, Geobacillus stearothermophilus, UniProt Q45619 1-251, looked up) MKERIHEYCHRLHLPVMAERWSAMAEYASTHNISYSEFLFRLLEAEIVEKQARSIQTLIKLSKLPYRKTIDTFDFTAQPSVDERRIRELLTLSFIDRKENILFLGPPGIGKTHLAISIGMEAIARGYKTYFITAHDLVNQLRRADQEGKLEKKLRVFVKPTVLIIDQMGYLKLDPNSAHYLFQVIARRYEHAPIILTSNKSFGEWGEIVGDSVLATAMLDRLLHHSIIFNLKGESYRLREKRLQEEKQKDQ | – | 2
5 | full-length IstB arginine finger mutant R221A (natural protein, Geobacillus stearothermophilus, UniProt Q45619 1-251, looked up) MKERIHEYCHRLHLPVMAERWSAMAEYASTHNISYSEFLFRLLEAEIVEKQARSIQTLIKLSKLPYRKTIDTFDFTAQPSVDERRIRELLTLSFIDRKENILFLGPPGIGKTHLAISIGMEAIARGYKTYFITAHDLVNQLRRADQEGKLEKKLRVFVKPTVLIIDEMGYLKLDPNSAHYLFQVIARRYEHAPIILTSNKSFGEWGEIVGDSVLATAMLDALLHHSIIFNLKGESYRLREKRLQEEKQKDQ | – | 2
